Experimental data as given in the DeepSol protein solubility set.

Experiment: soluble on expression in E. coli; label from the status in PepcDB or PDB records

Sequence	soluble on expression in E. coli
MAHHHHHHMSARMQFPLSQRRHTNIAVVRYSKNGVKLEIACYKNKVISYRSGTENRLDEVLQVERIFANVARGYLASEKEIQTVFGGEMTEAEAIRYMLDHGELQVAQQERAAEVDEMFKDIAVIISQKCINTKTQRPFPPQVVEQALRSIGAAVKLDQSVKKQALGLIHLLIDSDILPIARANMKIRCTTTSEAALEKLRGWCRDNDADVVSDSVTGKTSDGGSGNFGHALLLLMQPNLFRDLDHFVKEALPSGSTIHMVEAAVTEVGDSDVLLDANAVSLANAQPGRAEEEATMAGSRRAAAAPSSSSAGEVNRGCSDGRGGETGMSSNLGQGADNASNGQHQSDGEGKRGRTGKAKGTTRRGHRGRQSNNSDGDDLLDGSTDGAAEGGLGVDHDIAAGLQRLGLDPSHDLQDDSDDDGGRGRGSRGKKKKNASGTGGGPYQSQGAGGRKAGGGAAAVDDDDNAGKGKKGRKNAKSKKVAAAEKAKPGAEGAFSDSDEELMGNRKQRAKKQQETRMQQGGNDWHEEDFDYGEDEEAEVQLS	soluble
MGKKRKITDEKDAQHVPAEKREKVENWLKKSTEKPTSSQSDAEKKKKRPWRNKVRKLAAKKAAADKKSENPEEPPLILEPKSSSDENTKKKRKRGPKKKKFKPEVAGKAAETENDDVAAAPEEADPIAEAKKRLDAGRFRFLNEKLYTCTGSEAFDFFKEDPTAFDLYHKGFADQVKKWPNHPLREIIRWLQSKPDQQSVFDLGCGEAKIAEAVGEKHKIRSFDLVAVNDRVESCDMSKLPAEDSSADIVIYCLSLMGTNLYDFIREARRVLKIGGILKIAEVTSRFVSIKQFCEAITKMGFEQSHRRELTDYFMMMEFKKVEKVEQKRPYGLKLKPCLYKKR	soluble
MAGLGELERAVMDHLWSTSEPQTVRQVHEALAARRELAYTTVMTVLQRLAKKHLVIQQRDDRAHRYLPVHQREELVASLMVDALQQADKSGSRAAALVHFVGQVGADEADALREALAALEAKERSTGDNQSGTVRAG	not soluble
MGHHHHHHSHMRLPSKPYSTLPIFSLGPSALQRGESSMRSEKPSTAHHRPLRSIARFSSKSKSMDKSDEELQFPKELMEDWSTMEVCVDCKKFISEIISSSRRSLVLANKRARLKRKTQSFYMSSPGPSEYCPSERTISEI	not soluble
MQWQELYRQRVCSADEAVVDSLKPGTKVVFGHAAAAPVRFSQAMYRQREKLENITVFHMLYFGDAPHLAPEMRSHVHPTLNFLEGNSRPASRDRRVDFIPCHFHEVPELFRQGFFPLDVAVVQVSTPNEEGYCSFGVSCDYTKAAAECAPVVVAEVNKQMPFIGGENLIHISKLTHIIEVDEPIAEVLPPAISDLELRIGQNCASLIKDGDTLQLGIGGIPDAVLRALEGHKDLGIHTEMFTDGVMRMIRKGIINGKKKTLHPEKVVTSLIFGSKELYDFVNNNPVIECYPGDYINNPDVIGKNDRMVSINSCLEMDLMGQAASESIGYEQFSGSGGQVDFLRGAKRSKGGISIMAFPSTAKKGTESRIVPILKEGACVTTGRNEVDYVVTEYGVARLRGATLRQRAEALTAIAHPDFRPALEEEIRRRFELEHHHHHH	soluble
SNAMDLQLSKRLQKVANYVPKGARLLDVGSDHAYLPIFLLQMGYCDFAIAGEVVNGPYQSALKNVSEHGLTSKIDVRLANGLSAFEEADNIDTITICGMGGRLIADILNNDIDKLQHVKTLVLQPNNREDDLRKWLAANDFEIVAEDILTENDKRYEILVVKHGHMNLTAKELRFGPFLLSNNTTVFKEKWQNELNKLTFALNSIPNSKMEERAILEDKIQDIKEVLDES	soluble
MGSDKIHHHHHHMLIFQCHGDRCLSSNLQEHFTDLKKLVNGKSLLMGEKNVQKRLIRLGQILRVFLDKDRVSSIWLSRNFQITPRTIQRDLAALKESGFPIHEIQKGVYRLGKDLIKNLEVFDETELALVITLRNVVGQLGRPFQKAADGLFNSLYDAASSMPVYVRMDESIPLDSSLLNRIVKSIRLKKIAGFYYKSGKPHQVNMEPYRVVHFGGFWYLVGKDTGDSVIKRYALDRISDFKMARTPFRKIPENLDSAIQGSANIWFSTDQNLVVKISVDASSSGYFKRRKVFPTQEITEEREDGSLIVTFRVGRYEAIQDILKSWLPHITILEPAEFRDAFLADMKKWVQRQEQVGS	not soluble
MGSDKIHHHHHHMKIRYGIIGVGGHGKNRHLIPLIKLKNKVEIVAVADVKKERCEEVSSQFNIKCYLDYMEMVEKESLNAVSIVTPTGLHSRIAINVLNKGVNVLVDKPLGSNLEEVKEVVNTARNKGLKLMVGYWSRFSPALQYGKEIIHNGLLGEPYVAYGYLVRRRGIPGIPTFIDKTLSGGRGALLDIGCYLIDNLLSLLKFRKPISVMGKVYTKFGNVKEEVKFNWGSWDPENFSLDDYAVGLVKLEGDVSLILEVGWSANVSHVEEKSYVRILGDKGGIEGSGHEAIVDISFHSRTENFLTDTKPVLRKVDPYFEMINAFVDSILTDREPPITGEESVTLHSIIDGIYKSSTEDKEVKISL	not soluble
MSTTKAFKMTYTNAGNKKTEQVIQATEPLTILLMGVDTGGEGRGTSDSWNGNSDSQILMTLNPKTHTTTMVSIERDTMTNILDADGNIVSKQKMNAAYPLGYNSGSSSDGLKNAVSYAMKTISAQTGINIDSFVTVNFDGLVNMVDNVGGIDINNTTGQTLYISDTEPQYTAKVPPGKQHINGDQALVYTRDRHHLSNGDYGRAAHQREVIAALMKKILALDNITRYEQFLNEASKDFRTNIPINASTITSLLGYKDCFNKVVSIQYEGVGEMVDGASYQFMPTDIYLAMQNIMKKSLDESTVTTLPSSLITYESVFGSGTAPFYYLPSATVTEKGKSTVTYGVDTQGNLVSLNSKNSGNYVSTSGGSVQSDSSSGSSSSSSDSTATSSSDSTYQQDNTYNDGYNNSNDSTTSSYGTDDTNTGNYGYGTSQLEHHHHHH	soluble
MGSDKIHHHHHHMSASLNYKSFSKEQQTMDNLEKQLICPICLEMFTKPVVILPCQHNLCRKCASDIFQASNPYLPTRGGTTMASGGRFRCPSCRHEVVLDRHGVYGLQRNLLVENIIDIYKQESTRPEKKSDQPMCEEHEEERINIYCLNCEVPTCSLCKVFGAHKDCQVAPLTHVFQRQKSELSDGIAILVGSNDRVQGVISQLEDTCKTIEECCRKQKQELCEKFDYLYGILEERKNEMTQVITRTQEEKLEHVRALIKKYSDHLENVSKLVESGIQFMDEPEMAVFLQNAKTLLKKISEASKAFQMEKIEHGYENMNHFTVNLNREEKIIREIDFYR	not soluble
MDTPSLTPWLSIVGISEEGWLALTPIAQQCILQADILVGSDRHFDLLPSLPGAEQWRWGSPFSATITQILERRGQSICILASGDPMCYGVGSLLAQRLPLTELQILPAPSAFSLACSRLGWALPEVETLSLCGRDPALLNALLYPGAKILALSADRSTPATIAEQLCQQGWGSSRLTVLEHLGGPKERKISEIAEHWSQPTIASLNTVAIECHARDRDLIVPPRLTGLPDAAYHHDGQLTKREVRAITLAALAPLPGQLLWDVGAGCGSIGIEWMRSDRRCRAIAIEQHPQRLQIITQNAIALGVPNLQVVAGSAPATLSGLPQPDAIFIGGGVTAPGVLDQCWQALPMGGRLVVNAVTLESEQVVLAGQQRWGGDLIRVAVQRAEPIGRFLGWKSLAPITQWTVKKTALEHHHHHH	not soluble
MTDLHPVKEETFNITAMNNIDPKGFHRDVDTYSETEFGLYMARGANHPRFGYLESWLLPEINLRANIFHFRDGIDEHQDFYFDIAEISHDGHTWHTRDLYVDLISVVGEPVRVDDTDELAAATSAGLITAEDAEKAIDATLLAVDGITRHNDDPMAWLAAMGYPLTWAKNITLKEAE	soluble
MKVAIVHNSEEKSKQVTKQLTTLLEQNQIQIDNRQPELVISVGGDGTLLSAFHRFNHLLNEVSFLGVHTGHLGFYTDWRDYELKELVESLCIHREKSTSYPLLDVRIRFRDGKPDKHFLALNESTIKRGNRTMVGDVFIKDELFERFRGDGLSISTPTGSTAYNKSIGGAVLHPSINAFQLTEIASLNNRVFRTLGSPIVIAHTEWLEIKLQESDDYFVTVDQLDIYQENIASVCYRIADERIHFASYRHMHFWHRVKDAFIGED	not soluble
